We go through 1 molecule from patent US20150087814A1 (UNIVERSITY OF MARYLAND BALTIMORE, published 2015).

What all share (assay): SPR (Biacore T100), antibody captured on protein A chip, receptor injected as analyte
The target of assay [1] is T1, FcγRIIb (UniProt P31994 46-217, limits assumed).
T1 construct: also called FcγIIb receptor
T1 sequence (looked up): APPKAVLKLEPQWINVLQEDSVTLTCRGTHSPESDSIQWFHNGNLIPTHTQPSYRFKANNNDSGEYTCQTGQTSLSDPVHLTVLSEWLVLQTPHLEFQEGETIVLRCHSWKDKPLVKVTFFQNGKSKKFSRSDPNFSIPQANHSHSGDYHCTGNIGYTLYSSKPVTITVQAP

Assay [2] has as its target T2, FcγRIIIa-F158 (UniProt P08637 17-208, limits assumed).
T2 construct: also called FcγRIIIa-F158 allele

Assay [3] concerns the target T3, FcγRIIIa-V158 (UniProt P08637 17-208, limits assumed).
T3 construct: It names the V158 allele but states no substitution against an entry; also called FcγRIIIa-V158 allele

T3 sequence (P08637 17-208 F176V limits assumed): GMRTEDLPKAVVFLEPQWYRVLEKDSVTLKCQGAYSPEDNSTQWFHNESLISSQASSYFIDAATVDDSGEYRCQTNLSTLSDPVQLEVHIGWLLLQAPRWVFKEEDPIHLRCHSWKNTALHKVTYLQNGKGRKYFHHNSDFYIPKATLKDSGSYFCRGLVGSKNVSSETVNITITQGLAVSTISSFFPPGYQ
T2 sequence (P08637 17-208 limits assumed): as the sequence (P08637 17-208 F176V limits assumed) above, with V160F counted along it

B1: commercial rituximab (rituxan, Genentech Inc.) (antibody)
chain 1: not shown
chain 2: QIVLSQSPAILSASPGEKVTMTCRASSSVSYIHWFQQKPGSSPKPWIYATNLASGVPVRFSGSGSGTSYSLTISRVEAEDAATYYCQQWTSNPPTFGGGTKLEIKRTVAAPSVFIFPPSDEQLKSGTASVVCLLNNFYPREAKVQWKVDNALQSGNSQESVTEQDSKDSTYSLSSTLTLSKADYEKHKVYACEVTHQGLSSPVTKSFNRGEC
What is called Kd is the equilibrium constant for the complex coming apart. High values mean a looser complex, low ones a tighter complex. Take B1: the values for the Kd in assay [1], in assay [2] and in assay [3] were 2 µM, 1.04 µM and 0.252 µM, respectively.
